B1: Arabidopsis thaliana cytosolic triosephosphate isomerase (enzyme, UniProt P48491 1-254, looked up)
chain: MARKFFVGGNWKCNGTAEEVKKIVNTLNEAQVPSQDVVEVVVSPPYVFLPLVKSTLRSDFFVAAQNCWVKKGGAFTGEVSAEMLVNLDIPWVILGHSERRAILNESSEFVGDKVAYALAQGLKVIACVGETLEEREAGSTMDVVAAQTKAIADRVTNWSNVVIAYEPVWAIGTGKVASPAQAQEVHDELRKWLAKNVSADVAATTRIIYGGSVNGGNCKELGGQADVDGFLVGGASLKPEFIDIIKAAEVKKSA
notes: cytosolic triosephosphate isomerase of Arabidopsis thaliana; also called AtcTPI; cytosolic TPI isoform of A. thaliana
B2: Synechocystis sp. PCC 6803 triosephosphate isomerase (enzyme)
chain: GPHMRKIIIAGNWKMHKTQAEAQAFLQGFKPLIEDAAESREVVLCVPFTDLSGMSQQLHGGRVRLGAQNVHWEASGAYTGEISAAMLTEIGIHYVVIGHSERRQYFGETDETANLRVLAAQKAGLIPILCVGESKAQRDAGETEQVIVDQVKKGLVNVDQSNLVIAYEPIWAIGTGDTCAATEANRVIGLIREQLTNSQVTIQYGGSVNANNVDEIMAQPEIDGALVGGASLEPQSFARIVNFQP
notes: triosephosphate isomerase of Synechocystis sp; PCC 6803, GenBank BAK50928.1; Crystallised with the substrate analog 2-phosphoglycolate (2-PG); also called SyTPI; Synechocystis TPI; source: E. coli BL21 (DE3) Δtpi, purified (HisTrap, PreScission Protease, Superdex 75 gel filtration); not shown: His tag (from the HisTrap column and the modified pET19 vector), N-terminal, cleaved

Target: the molecule itself
Assay: SEC; Superdex 75 10/300 column, compared with MW standards (conalbumin, ovalbumin, carbonic anhydrase, Ribonuclease A); apparent molecular mass of SyTPI 54 kDa

Protein | stoichiometry N
B1 | 2
B2 | 2

Reference: PMC6277545, “Structural Basis for the Limited Response to Oxidative and Thiol-Conjugating Agents by Triosephosphate Isomerase From the Photosynthetic Bacteria Synechocystis” (Frontiers in Molecular Biosciences, 2018)
